# T1: PBP3 of E. coli (E. coli), P0AD68
# T1 chain: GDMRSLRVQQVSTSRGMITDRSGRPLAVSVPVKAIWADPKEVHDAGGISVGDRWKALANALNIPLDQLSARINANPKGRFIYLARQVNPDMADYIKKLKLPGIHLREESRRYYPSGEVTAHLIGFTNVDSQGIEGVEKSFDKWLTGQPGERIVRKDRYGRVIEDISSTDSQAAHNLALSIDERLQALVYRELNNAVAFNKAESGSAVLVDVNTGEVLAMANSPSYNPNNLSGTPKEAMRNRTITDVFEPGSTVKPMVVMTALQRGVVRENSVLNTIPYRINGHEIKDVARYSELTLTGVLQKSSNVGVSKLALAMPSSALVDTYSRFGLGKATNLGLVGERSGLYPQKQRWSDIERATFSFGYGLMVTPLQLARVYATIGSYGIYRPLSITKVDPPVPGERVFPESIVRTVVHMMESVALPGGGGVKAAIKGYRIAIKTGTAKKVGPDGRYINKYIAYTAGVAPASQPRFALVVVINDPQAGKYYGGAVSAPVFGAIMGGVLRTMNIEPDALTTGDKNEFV
# Target: T1, PBP3 of E. coli (E. coli), P0AD68
# Test: fluorescence polarisation competition, BODIPY-labelled penicillin as tracer
# Settings: not given
row,Ki,Molecule
1,1390 nM,ACLENCYYVPYYGYACA (modifications not checked) [BCY12123]

# Target: PBP3 (E. coli) (Escherichia coli, UniProt P0AD68)
# Test: Fluorescence polarisation direct binding assay
# Settings: direct binding to PBP 3 (E. coli)
# Method: Fluorescent peptides at 10 mM in DMSO were diluted to 2.5 nM in binding buffer (10 mM HEPES, pH8, 300 mM NaCl, 2% glycerol). A two-fold dilution series of PBP protein was then prepared across 12 wells in binding buffer, with the highest concentration being 21 μM, and the lowest concentration being 17 nM.
# 10 μl diluted fluorescent peptide (2.5 nM) was added into 12 wells of a 384-Well NBS™ Low Volume Microplate (Fisher Scientific). 10 μl PBP dilution series was then added to the wells containing the fluorescent peptide, and 5 μl binding buffer was added to bring the total volume to 25 μl and the final concentration of peptide tracer to 1 nM. A control well lacking PBP protein was prepared with a final peptide concentration of 1 nM to a final volume of 25 μl in binding buffer. Fluorescence polarisation was measured every 5 minutes for a period of one hour at room temperature. The gain and focal height were optimised using the control well lacking protein.
# Data were analysed in GraphPad software to derive values for the dissociation constant. Experiments were repeated at least three times.
# Certain peptide ligands of the invention were tested in the above mentioned binding assay and the results are shown in Table 1 for binding to the indicated PBP: […]
# Sequence of PBP3 (E. coli) (P0AD68 1-577): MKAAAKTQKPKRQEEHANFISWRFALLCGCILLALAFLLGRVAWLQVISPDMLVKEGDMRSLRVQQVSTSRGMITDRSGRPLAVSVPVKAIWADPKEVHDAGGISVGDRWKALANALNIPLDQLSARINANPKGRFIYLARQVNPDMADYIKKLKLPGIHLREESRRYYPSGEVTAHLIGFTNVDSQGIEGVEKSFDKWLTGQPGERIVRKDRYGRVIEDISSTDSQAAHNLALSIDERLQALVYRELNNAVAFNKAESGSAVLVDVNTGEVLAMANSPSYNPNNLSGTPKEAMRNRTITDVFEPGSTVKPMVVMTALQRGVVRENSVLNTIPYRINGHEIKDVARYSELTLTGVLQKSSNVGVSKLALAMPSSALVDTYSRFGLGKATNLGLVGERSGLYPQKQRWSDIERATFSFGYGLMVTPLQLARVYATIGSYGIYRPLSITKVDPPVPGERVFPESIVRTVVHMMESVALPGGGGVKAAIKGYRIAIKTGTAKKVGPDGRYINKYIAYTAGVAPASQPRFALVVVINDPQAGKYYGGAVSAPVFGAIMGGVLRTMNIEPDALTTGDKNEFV
row,Molecule,Kd
1,Cc1cc(C)n2c1C=C1C=CC(CCC(=O)Nc3ccc(OCC(=O)N[C@@H]4C(=O)N5[C@@H]4SC(C)(C)[C@@H]5C(=O)O)cc3)=[N+]1[B-]2(F)F [Bocillin],440 nM

# Target: unmodified PBP protein
# Test: Fluorescence polarisation competition binding assay (BODIPY labelled penicillin tracer)
# Settings: competition with BODIPY labelled penicillin tracer
# Method: Fluorescence polarisation competition was carried out using a BODIPY labelled Penicillin tracer and unlabelled peptides, for competition to an unmodified PBP protein.
# Fluorescent BODIPY labelled penicillin at 5 mM in DMSO were diluted to 6.25 nM in binding buffer (10 mM HEPES, pH8, 300 mM NaCl, 2% glycerol). Unmodified PBP were diluted to 2 μM in binding buffer. A two-fold dilution series of unmodified peptide was prepared across 12 wells in binding buffer, with the highest final well concentration being 60 μM, and the lowest concentration being […]. 5 μl of the unmodified peptide dilution series or Carbenicillin were added to 12 wells of a 384-Well NBS™ Low Volume Microplate (Fisher Scientific). 10 μl diluted fluorescent BODIPY labelled penicillin (6.25 nM) were then added to the 12 wells containing the unmodified peptide dilutions. 10 μl of unmodified PBP (2 μM) were then added to the 12 wells containing unmodified peptide and fluorescent BODIPY labelled penicillin to bring the total volume to 25 μl, and the final concentration of Fluorescent BODIPY labelled penicillin to 2.5 nM and unmodified PBP to 800 nM. […]
# Fluorescence polarisation was measured every 5 minutes for a period of one hour at room temperature. […]
# Data were analysed in GraphPad software to derive values for the inhibition constant. […]
row,Molecule,Ki
1,"A-CiLENCiiYYVPYYGYACiii-A, TATA bicyclic peptide [BCY12123, A-(SEQ ID NO: 3)-A]",1390 nM

# Target: T1, PBP3 of E. coli (E. coli), P0AD68
# Test: FP competition, tracer BCY12820
# Settings: not given
row,Ki,Molecule
1,< 4080 nM,ACWFPNCPWVEGCA (modifications not checked) [BCY13764]
2,30 nM,ACSFPKCPWVEACA (modifications not checked) [BCY13664]
3,4 nM,ACSFPACPWVEGCA (modifications not checked) [BCY13659]
4,3 nM,CSFPKCPWVEGC (modifications not checked) [BCY12742]
5,40 nM,ACSFPKCPWVEKCA (modifications not checked) [BCY13419]
6,< 3820 nM,ACVYPKCPWVEGCA (modifications not checked) [BCY13768]
7,20 nM,ACQFPVCPWVEGCA (modifications not checked) [BCY13226]
8,45400 nM,CSFPKCPWVEGC (modifications not checked) [BCY13949]
9,5 nM,ACAFPKCPWVEGCA (modifications not checked) [BCY13656]

# From patent publication US20230106511A1, “PBP3 BINDING BICYCLIC PEPTIDE LIGANDS” (priority 2020, published 2023)
